Experimental data taken from patent publication US20130011380A1.
Several values for one entry are separate records, joined by “and”; a condition that tells them apart may be missing. Equal entries are not always repeated.

How the values were obtained:
Test in all cases: anti-Flag IP-MS, mES nuclear extract
[1] = molecular target: Rangap1 (mouse) (UniProt P46061)
[2] = molecular target: Tet1 (mouse) (UniProt Q3URK3)
[3] = molecular target: Dync1h1 (mouse) (UniProt Q9JHU4)
[4] = molecular target: Smarcc1 (mouse) (UniProt P97496)
[5] = molecular target: Aars (mouse) (UniProt Q8BGQ7)
Chain of Aars (mouse) (Q8BGQ7 whole entry): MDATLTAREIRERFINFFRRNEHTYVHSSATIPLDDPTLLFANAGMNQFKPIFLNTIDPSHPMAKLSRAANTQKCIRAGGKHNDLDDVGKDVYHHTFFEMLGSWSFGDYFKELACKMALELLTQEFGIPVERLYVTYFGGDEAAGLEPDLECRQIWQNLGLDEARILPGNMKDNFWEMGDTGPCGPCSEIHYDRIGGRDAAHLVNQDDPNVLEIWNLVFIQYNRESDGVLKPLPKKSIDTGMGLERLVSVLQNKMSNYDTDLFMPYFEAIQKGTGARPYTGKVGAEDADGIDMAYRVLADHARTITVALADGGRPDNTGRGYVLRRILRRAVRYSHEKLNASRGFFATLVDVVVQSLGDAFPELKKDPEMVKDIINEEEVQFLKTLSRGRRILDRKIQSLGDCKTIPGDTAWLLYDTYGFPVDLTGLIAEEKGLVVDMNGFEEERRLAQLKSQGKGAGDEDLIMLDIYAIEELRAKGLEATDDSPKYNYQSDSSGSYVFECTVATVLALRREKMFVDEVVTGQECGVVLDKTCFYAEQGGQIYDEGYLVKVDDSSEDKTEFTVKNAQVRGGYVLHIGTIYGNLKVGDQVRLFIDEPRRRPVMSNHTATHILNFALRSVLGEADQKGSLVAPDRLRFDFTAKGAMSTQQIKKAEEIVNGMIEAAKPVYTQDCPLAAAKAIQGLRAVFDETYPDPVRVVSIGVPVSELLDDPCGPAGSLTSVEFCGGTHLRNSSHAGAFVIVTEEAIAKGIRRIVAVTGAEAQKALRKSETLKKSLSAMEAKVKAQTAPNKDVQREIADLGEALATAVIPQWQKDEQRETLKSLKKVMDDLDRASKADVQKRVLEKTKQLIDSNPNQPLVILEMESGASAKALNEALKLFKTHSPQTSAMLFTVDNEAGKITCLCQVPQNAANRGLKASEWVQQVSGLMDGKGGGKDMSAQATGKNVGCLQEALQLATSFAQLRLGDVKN

[6] = molecular target: Nasp (mouse) (UniProt Q99MD9)
[7] = molecular target: Spna2 (mouse) (UniProt P16546)
[8] = molecular target: Cse1l (mouse) (UniProt Q9ERK4)
[9] = molecular target: Ranbp2 (mouse) (UniProt Q9ERU9)
[10] = molecular target: Vdac1 (mouse) (UniProt Q60932)
[11] = molecular target: Cbx1 (mouse) (UniProt P83917)
Chain of Cbx1 (mouse) (P83917 whole entry): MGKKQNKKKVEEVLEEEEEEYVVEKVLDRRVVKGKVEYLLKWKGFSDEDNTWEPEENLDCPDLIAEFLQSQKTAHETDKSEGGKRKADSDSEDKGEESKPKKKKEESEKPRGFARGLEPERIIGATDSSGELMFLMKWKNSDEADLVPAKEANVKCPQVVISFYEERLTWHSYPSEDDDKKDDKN

[12] = molecular target: Ttf1 (mouse) (UniProt Q62187)
[13] = molecular target: Calu (mouse) (UniProt O35887)
[14] = molecular target: Dnmt3a (mouse) (UniProt O88508)
[15] = molecular target: Hmga1 (mouse) (UniProt P17095)
[16] = molecular target: Col18a1 (mouse) (UniProt P39061)
Chain of Col18a1 (mouse) (P39061 27-1774 limits assumed): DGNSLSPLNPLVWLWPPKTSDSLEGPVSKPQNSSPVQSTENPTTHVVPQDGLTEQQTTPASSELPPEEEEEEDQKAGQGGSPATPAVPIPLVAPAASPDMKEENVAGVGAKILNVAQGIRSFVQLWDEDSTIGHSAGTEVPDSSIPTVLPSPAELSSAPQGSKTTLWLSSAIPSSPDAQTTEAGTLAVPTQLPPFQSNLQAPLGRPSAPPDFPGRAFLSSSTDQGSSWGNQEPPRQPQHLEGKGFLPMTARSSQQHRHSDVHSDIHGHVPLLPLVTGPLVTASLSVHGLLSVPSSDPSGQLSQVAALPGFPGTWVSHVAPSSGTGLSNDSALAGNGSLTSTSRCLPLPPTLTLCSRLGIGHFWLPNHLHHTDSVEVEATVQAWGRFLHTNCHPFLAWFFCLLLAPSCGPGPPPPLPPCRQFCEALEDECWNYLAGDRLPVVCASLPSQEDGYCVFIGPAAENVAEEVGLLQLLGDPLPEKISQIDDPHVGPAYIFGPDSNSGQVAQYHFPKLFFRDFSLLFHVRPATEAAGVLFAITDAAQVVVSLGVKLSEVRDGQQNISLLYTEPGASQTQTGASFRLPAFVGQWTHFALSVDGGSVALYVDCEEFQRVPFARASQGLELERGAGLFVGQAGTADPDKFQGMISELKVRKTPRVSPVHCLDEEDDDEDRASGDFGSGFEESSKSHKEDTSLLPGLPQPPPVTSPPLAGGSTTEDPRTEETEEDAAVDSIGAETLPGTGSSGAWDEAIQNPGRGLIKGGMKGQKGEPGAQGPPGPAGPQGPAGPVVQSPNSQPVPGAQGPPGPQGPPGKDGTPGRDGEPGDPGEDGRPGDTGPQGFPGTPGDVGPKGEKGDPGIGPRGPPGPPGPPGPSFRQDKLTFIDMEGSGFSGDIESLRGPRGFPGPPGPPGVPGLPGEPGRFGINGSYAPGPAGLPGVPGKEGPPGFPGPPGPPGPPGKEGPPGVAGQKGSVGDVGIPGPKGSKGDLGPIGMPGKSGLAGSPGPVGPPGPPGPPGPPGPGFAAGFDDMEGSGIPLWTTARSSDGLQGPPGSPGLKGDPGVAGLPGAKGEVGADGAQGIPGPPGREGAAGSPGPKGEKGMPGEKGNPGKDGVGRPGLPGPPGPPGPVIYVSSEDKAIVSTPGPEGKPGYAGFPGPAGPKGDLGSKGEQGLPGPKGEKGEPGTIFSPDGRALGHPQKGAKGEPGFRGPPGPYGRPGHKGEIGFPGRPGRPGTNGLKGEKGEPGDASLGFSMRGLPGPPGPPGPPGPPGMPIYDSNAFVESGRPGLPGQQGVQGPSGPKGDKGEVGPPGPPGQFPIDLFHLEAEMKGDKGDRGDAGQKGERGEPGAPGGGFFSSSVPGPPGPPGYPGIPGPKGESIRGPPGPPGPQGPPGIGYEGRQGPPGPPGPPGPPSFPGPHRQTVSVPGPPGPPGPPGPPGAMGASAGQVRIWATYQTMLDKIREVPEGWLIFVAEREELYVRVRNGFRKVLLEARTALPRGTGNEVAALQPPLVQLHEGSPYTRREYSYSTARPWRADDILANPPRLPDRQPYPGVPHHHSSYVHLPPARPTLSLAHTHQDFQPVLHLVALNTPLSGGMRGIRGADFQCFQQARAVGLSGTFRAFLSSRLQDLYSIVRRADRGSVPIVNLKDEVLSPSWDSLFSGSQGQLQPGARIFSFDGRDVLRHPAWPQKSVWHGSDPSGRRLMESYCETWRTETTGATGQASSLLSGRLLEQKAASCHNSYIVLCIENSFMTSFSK

[17] = molecular target: Etl4 (mouse) (UniProt A2AQ25)
[18] = molecular target: Zc3h18 (mouse) (UniProt Q0P678)
[19] = molecular target: Mcm3 (mouse) (UniProt P25206)
[20] = molecular target: Rcc1 (mouse) (UniProt Q8VE37)
[21] = molecular target: Cct2 (mouse) (UniProt P80314)
[22] = molecular target: Smarcad1 (mouse) (UniProt Q04692)
[23] = molecular target: Cnot1 (mouse) (UniProt Q6ZQ08)
[24] = molecular target: Dnajb6 (mouse) (UniProt O54946)
[25] = molecular target: Smc4 (mouse) (UniProt Q8CG47)
[26] = molecular target: Ssr1 (mouse) (UniProt Q9CY50)
[27] = molecular target: Eprs (mouse) (UniProt Q8CGC7)
[28] = molecular target: Nol9 (mouse) (UniProt Q3TZX8)
Chain of Nol9 (mouse) (Q3TZX8 2-714 limits assumed): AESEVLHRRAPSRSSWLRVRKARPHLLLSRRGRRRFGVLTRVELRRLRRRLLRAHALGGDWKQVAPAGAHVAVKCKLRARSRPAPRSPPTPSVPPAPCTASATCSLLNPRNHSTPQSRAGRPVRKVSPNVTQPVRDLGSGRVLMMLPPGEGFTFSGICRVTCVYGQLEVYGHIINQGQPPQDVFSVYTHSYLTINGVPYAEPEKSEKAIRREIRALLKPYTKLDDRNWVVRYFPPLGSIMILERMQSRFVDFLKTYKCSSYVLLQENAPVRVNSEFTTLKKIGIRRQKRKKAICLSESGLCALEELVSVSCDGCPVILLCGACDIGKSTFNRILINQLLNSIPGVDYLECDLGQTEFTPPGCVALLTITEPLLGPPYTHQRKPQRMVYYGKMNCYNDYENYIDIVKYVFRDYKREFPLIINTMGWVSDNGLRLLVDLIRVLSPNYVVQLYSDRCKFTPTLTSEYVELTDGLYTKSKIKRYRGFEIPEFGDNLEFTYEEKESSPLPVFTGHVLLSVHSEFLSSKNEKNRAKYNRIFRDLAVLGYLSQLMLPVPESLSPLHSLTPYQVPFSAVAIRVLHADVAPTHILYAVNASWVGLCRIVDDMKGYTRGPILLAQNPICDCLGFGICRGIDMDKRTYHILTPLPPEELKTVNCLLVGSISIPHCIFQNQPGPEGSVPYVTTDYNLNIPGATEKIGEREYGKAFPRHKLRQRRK

[29] = molecular target: Plec1 (mouse) (UniProt Q9QXS1)
[30] = molecular target: Pcbp1 (mouse) (UniProt P60335)
Chain of Pcbp1 (mouse) (P60335 whole entry): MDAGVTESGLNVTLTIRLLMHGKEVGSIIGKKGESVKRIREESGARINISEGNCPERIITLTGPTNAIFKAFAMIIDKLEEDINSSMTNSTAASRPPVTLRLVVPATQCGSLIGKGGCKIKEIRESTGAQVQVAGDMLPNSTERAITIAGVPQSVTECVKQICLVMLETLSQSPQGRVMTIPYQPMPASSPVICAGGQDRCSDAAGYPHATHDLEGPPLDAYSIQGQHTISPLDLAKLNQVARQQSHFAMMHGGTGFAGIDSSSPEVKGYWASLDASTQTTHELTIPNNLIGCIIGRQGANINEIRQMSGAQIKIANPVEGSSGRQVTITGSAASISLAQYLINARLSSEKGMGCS

[31] = molecular target: Pfkl (mouse) (UniProt P12382)
Chain of Pfkl (mouse) (P12382 2-780 limits assumed): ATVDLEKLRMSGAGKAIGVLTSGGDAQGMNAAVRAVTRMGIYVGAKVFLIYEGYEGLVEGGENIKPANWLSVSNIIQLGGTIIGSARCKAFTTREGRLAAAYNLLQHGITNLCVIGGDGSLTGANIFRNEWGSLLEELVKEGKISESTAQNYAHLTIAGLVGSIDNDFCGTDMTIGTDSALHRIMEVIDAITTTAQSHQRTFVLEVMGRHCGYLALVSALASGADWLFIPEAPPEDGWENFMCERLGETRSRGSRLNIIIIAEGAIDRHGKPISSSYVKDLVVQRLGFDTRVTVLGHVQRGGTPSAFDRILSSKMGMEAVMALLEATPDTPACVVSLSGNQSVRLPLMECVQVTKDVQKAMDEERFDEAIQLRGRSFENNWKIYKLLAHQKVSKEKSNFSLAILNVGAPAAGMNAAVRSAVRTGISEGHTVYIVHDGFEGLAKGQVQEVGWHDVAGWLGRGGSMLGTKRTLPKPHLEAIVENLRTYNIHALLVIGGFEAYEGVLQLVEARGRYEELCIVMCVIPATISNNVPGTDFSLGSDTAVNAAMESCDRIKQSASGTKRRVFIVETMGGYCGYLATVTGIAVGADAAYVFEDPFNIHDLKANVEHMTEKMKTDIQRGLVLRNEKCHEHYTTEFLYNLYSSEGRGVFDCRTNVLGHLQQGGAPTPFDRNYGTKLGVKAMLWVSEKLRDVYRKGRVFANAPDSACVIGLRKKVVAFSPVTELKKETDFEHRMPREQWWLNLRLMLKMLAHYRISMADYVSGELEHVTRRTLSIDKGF

[32] = molecular target: Cct8 (mouse) (UniProt P42932)
[33] = molecular target: Hspa5 (mouse) (UniProt P20029)
[34] = molecular target: Aff1 (mouse) (UniProt O88573)
[35] = molecular target: Tubb6 (mouse) (UniProt Q922F4)
[36] = molecular target: Rpn1 (mouse) (UniProt Q91YQ5)
[37] = molecular target: Bst2 (mouse) (UniProt Q8R2Q8)
[38] = molecular target: Ywhab (mouse) (UniProt Q9CQV8)
Chain of Ywhab (mouse) (Q9CQV8 whole entry): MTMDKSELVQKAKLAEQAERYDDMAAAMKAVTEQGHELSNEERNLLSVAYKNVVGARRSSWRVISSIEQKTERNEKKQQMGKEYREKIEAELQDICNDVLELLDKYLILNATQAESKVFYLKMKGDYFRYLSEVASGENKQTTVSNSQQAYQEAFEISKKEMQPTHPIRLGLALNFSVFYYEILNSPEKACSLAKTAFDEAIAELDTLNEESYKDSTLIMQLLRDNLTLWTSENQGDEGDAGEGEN

[39] = molecular target: Mcm4 (mouse) (UniProt P49717)
[40] = molecular target: Ddb1 (mouse) (UniProt Q3U1J4)

2x Flag tag only (control) (peptide) was tested, and the Nucleus peptide [1] was 0 peptides, the Nucleus spectra [1] was 0 spectra and the Nucleus peptide [2] was 1 peptides. It also gave a Nucleus peptide [3] of 0 peptides, a Nucleus spectra [3] of 0 spectra and a Nucleus peptide [4] of 4 peptides. It also gave a Nucleus spectra [4] of 4 spectra, a Nucleus peptide [5] of 3 peptides and a Nucleus spectra [5] of 4 spectra. It also gave a Nucleus peptide [6] of 1 peptides, a Nucleus spectra [6] of 1 spectra and a Nucleus peptide [7] of 5 peptides. It also gave a Nucleus spectra [7] of 9 spectra, a Nucleus peptide [8] of 0 peptides and a Nucleus spectra [8] of 0 spectra. For the same substance, the Nucleus peptide [9] was 8 peptides, the Nucleus spectra [9] was 12 spectra and the Nucleus peptide [10] was 1 peptides. For the same substance, the Nucleus spectra [10] was 1 spectra, the Nucleus peptide [11] was 1 peptides and the Nucleus spectra [11] was 4 spectra. It also gave a Nucleus peptide [12] of 1 peptides, a Nucleus spectra [12] of 1 spectra and a Nucleus peptide [13] of 0 peptides. It also gave a Nucleus spectra [13] of 0 spectra, a Nucleus peptide [14] of 0 peptides and a Nucleus spectra [14] of 0 spectra. For the same substance, the Nucleus peptide [15] was 1 peptides, the Nucleus spectra [15] was 8 spectra and the Nucleus peptide [16] was 1 peptides. The Nucleus spectra [16] was 1 spectra, the Nucleus peptide [17] was 0 peptides and the Nucleus spectra [17] was 0 spectra. The Nucleus peptide [18] was 3 peptides and 1 peptides, the Nucleus peptide [19] was 5 peptides and the Nucleus spectra [19] was 7 spectra. For the same substance, the Nucleus peptide [20] was 3 peptides, the Nucleus spectra [20] was 6 spectra and the Nucleus peptide [21] was 2 peptides. It also gave a Nucleus spectra [21] of 4 spectra, a Nucleus peptide [22] of 1 peptides and a Nucleus spectra [22] of 1 spectra. The Nucleus peptide [23] was 3 peptides, the Nucleus spectra [23] was 4 spectra and the Nucleus peptide [24] was 1 peptides. For the same substance, the Nucleus spectra [24] was 2 spectra, the Nucleus peptide [25] was 1 peptides and the Nucleus spectra [25] was 2 spectra. It also gave a Nucleus peptide [26] of 0 peptides, a Nucleus spectra [26] of 0 spectra and a Nucleus peptide [27] of 3 peptides. It also gave a Nucleus spectra [27] of 3 spectra, a Nucleus peptide [28] of 1 peptides and a Nucleus spectra [28] of 1 spectra. It also gave a Nucleus peptide [29] of 15 peptides, a Nucleus spectra [29] of 20 spectra and a Nucleus peptide [30] of 2 peptides. For the same substance, the Nucleus spectra [30] was 6 spectra, the Nucleus peptide [31] was 1 peptides and the Nucleus spectra [31] was 1 spectra. For the same substance, the Nucleus peptide [32] was 6 peptides, the Nucleus spectra [32] was 10 spectra and the Nucleus peptide [33] was 10 peptides. The Nucleus spectra [33] was 13 spectra, the Nucleus peptide [34] was 0 peptides and the Nucleus spectra [34] was 0 spectra. The Nucleus peptide [35] was 1 peptides, the Nucleus spectra [35] was 1 spectra and the Nucleus peptide [36] was 0 peptides. For the same substance, the Nucleus spectra [36] was 0 spectra, the Nucleus peptide [37] was 1 peptides and the Nucleus spectra [37] was 1 spectra. The Nucleus peptide [38] was 0 peptides, the Nucleus spectra [38] was 0 spectra and the Nucleus peptide [39] was 2 peptides. It also gave a Nucleus spectra [39] of 2 spectra, a Nucleus peptide [40] of 0 peptides and a Nucleus spectra [40] of 0 spectra.

For “human AID containing two tandem Flag tags (Flag-human AID) (from UniProt Q9GZX7 1-198) (enzyme)”, the Nucleus peptide [1] was 10 peptides, the Nucleus spectra [1] was 29 spectra and the Nucleus peptide [2] was 14 peptides. The Nucleus spectra [2] was 41 spectra, the Nucleus peptide [3] was 16 peptides and the Nucleus spectra [3] was 21 spectra. The Nucleus peptide [4] was 6 peptides, the Nucleus spectra [4] was 10 spectra and the Nucleus peptide [5] was 10 peptides. For the same substance, the Nucleus spectra [5] was 21 spectra, the Nucleus peptide [6] was 5 peptides and the Nucleus spectra [6] was 9 spectra. For the same substance, the Nucleus peptide [7] was 14 peptides, the Nucleus spectra [7] was 28 spectra and the Nucleus peptide [8] was 3 peptides. The Nucleus spectra [8] was 4 spectra, the Nucleus peptide [9] was 57 peptides and the Nucleus spectra [9] was 160 spectra. It also gave a Nucleus peptide [10] of 4 peptides, a Nucleus spectra [10] of 5 spectra and a Nucleus peptide [11] of 2 peptides. For the same substance, the Nucleus spectra [11] was 12 spectra, the Nucleus peptide [12] was 3 peptides and the Nucleus spectra [12] was 4 spectra. The Nucleus peptide [13] was 3 peptides, the Nucleus spectra [13] was 6 spectra and the Nucleus peptide [14] was 6 peptides. For the same substance, the Nucleus spectra [14] was 13 spectra, the Nucleus peptide [15] was 5 peptides and the Nucleus spectra [15] was 18 spectra. It also gave a Nucleus peptide [16] of 4 peptides, a Nucleus spectra [16] of 5 spectra and a Nucleus peptide [17] of 7 peptides. The Nucleus spectra [17] was 13 spectra, the Nucleus peptide [18] was 5 peptides and 2 peptides and the Nucleus spectra [18] was 20 spectra and 8 spectra. It also gave a Nucleus peptide [19] of 9 peptides, a Nucleus spectra [19] of 22 spectra and a Nucleus peptide [20] of 7 peptides. It also gave a Nucleus spectra [20] of 16 spectra, a Nucleus peptide [21] of 8 peptides and a Nucleus spectra [21] of 17 spectra. It also gave a Nucleus peptide [22] of 5 peptides, a Nucleus spectra [22] of 8 spectra and a Nucleus peptide [23] of 6 peptides. It also gave a Nucleus spectra [23] of 11 spectra, a Nucleus peptide [24] of 5 peptides and a Nucleus spectra [24] of 17 spectra. It also gave a Nucleus peptide [25] of 5 peptides, a Nucleus spectra [25] of 7 spectra and a Nucleus peptide [26] of 3 peptides. For the same substance, the Nucleus spectra [26] was 9 spectra, the Nucleus peptide [27] was 5 peptides and the Nucleus spectra [27] was 7 spectra. The Nucleus peptide [28] was 6 peptides, the Nucleus spectra [28] was 14 spectra and the Nucleus peptide [29] was 48 peptides. It also gave a Nucleus spectra [29] of 94 spectra, a Nucleus peptide [30] of 5 peptides and a Nucleus spectra [30] of 13 spectra. The Nucleus peptide [31] was 6 peptides, the Nucleus spectra [31] was 10 spectra and the Nucleus peptide [32] was 12 peptides. It also gave a Nucleus spectra [32] of 31 spectra, a Nucleus peptide [33] of 13 peptides and a Nucleus spectra [33] of 30 spectra. The Nucleus peptide [34] was 3 peptides, the Nucleus spectra [34] was 6 spectra and the Nucleus peptide [35] was 3 peptides. The Nucleus spectra [35] was 5 spectra, the Nucleus peptide [36] was 3 peptides and the Nucleus spectra [36] was 5 spectra. For the same substance, the Nucleus peptide [37] was 4 peptides, the Nucleus spectra [37] was 12 spectra and the Nucleus peptide [38] was 3 peptides. For the same substance, the Nucleus spectra [38] was 7 spectra, the Nucleus peptide [39] was 6 peptides and the Nucleus spectra [39] was 13 spectra. The Nucleus peptide [40] was 3 peptides and the Nucleus spectra [40] was 3 spectra.
